Target: T1, 人CD123蛋白 (白细胞介素3受体α链, IL3RA) (human, UniProt P26951 19-378)
T1 construct: whole, on cells
Assay: FACS, PE-labelled 13C3 titrated (200nM to 0.003nM) on 3T3 cells transfected with CD123; Kd fitted in GraphPad Prism 5

T1 sequence (P26951 19-378): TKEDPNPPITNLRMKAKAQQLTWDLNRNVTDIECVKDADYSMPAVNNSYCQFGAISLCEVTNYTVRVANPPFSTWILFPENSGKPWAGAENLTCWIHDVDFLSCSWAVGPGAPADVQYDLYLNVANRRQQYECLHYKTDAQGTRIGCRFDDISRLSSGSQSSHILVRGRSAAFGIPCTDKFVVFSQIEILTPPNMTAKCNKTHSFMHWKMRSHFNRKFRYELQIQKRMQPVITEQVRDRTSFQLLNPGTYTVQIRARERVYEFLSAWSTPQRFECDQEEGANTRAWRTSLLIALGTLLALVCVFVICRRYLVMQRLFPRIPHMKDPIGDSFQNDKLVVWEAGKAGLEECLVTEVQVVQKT

B1: 鼠抗人CD123单克隆抗体13C3 (antibody, V domains shown)
VH: QVQLQESGPGILQPSQTLTLTCSFSGFSLSTSGMGVGWIRQPSGKGLEWLAHIWWDDDKRYKPALKSRLTISKDTSSNQVFLKIASVDTADAATYYCARMGGGNYLFLYAMDFWGQGTSVTVSA
VL: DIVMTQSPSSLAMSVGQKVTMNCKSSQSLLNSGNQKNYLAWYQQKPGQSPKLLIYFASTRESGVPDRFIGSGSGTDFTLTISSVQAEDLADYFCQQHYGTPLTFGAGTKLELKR
notes: PE-labelled purified antibody in the Kd assay and on patient samples; also called 抗CD123单克隆抗体13C3; 杂交瘤细胞株13C3 (CGMCC No.16699) 产生的抗体
Kd: 3.67 nM

From CN109810195A (INST OF HEMATOLOGY BLOOD DISEASES HOSPITAL OF CHINESE …, dated 2019)
